Where two headings read alike, the source gives them in different places.
Tests used:
Collagen type IV (CIV) [1] = assay: cell-based or functional assay
[2] = biological target: Bovine serum albumin (BSA) (bovine) (UniProt P02769); assay: cell-based or functional assay
[3] = biological target: Mouse laminin (isolated from the EHS-sarcoma) (mouse) (UniProt P19137); assay: cell-based or functional assay
[4] = biological target: Ace of E. faecalis strain OG1RF (native; on 46°C grown cells and in mutanolysin extracts) (Enterococcus faecalis strain OG1RF); assay: cell-based or functional assay
[5] = biological target: Ace of E. faecalis strain V583 (native; on cells and in mutanolysin extracts) (Enterococcus faecalis strain V583); assay: cell-based or functional assay
[6] = biological target: Ace of E. faecalis strain MC02152 (native; on cells and in mutanolysin extracts) (Enterococcus faecalis strain MC02152); assay: cell-based or functional assay
[7] = biological target: Mouse laminin (isolated from the EHS-sarcoma) (mouse) (UniProt P19137); assay: ELISA, 10 µg immobilised LN, bound His-tagged Ace A detected with penta-His monoclonal antibody, OD450
Collagen type I (CI) = assay: ELISA, 10 µg immobilised CI, bound His-tagged Ace A detected with penta-His monoclonal antibody, OD450
[8] = biological target: Ace of E. faecalis strain OG1RF (native; on 46°C grown cells and in mutanolysin extracts) (Enterococcus faecalis strain OG1RF); assay: cell-based or functional assay; remark: listed apart in the source
Collagen type IV (CIV) [9] = assay: cell-based or functional assay; remark: listed apart in the source
[10] = biological target: T1, Bovine Type I collagen (Collagen Corp.), immobilised on a CM5 chip (bovine, UniProt P02453 162-1217; P02465 80-1117); assay: SPR (BIAcore 1000), Scatchard analysis of equilibrium responses, 1-70 µM Ace A over immobilised collagen; three measurements
T1 construct: Bought, predissolved in 0.1 M HCl

[11] = biological target: Mouse laminin (isolated from the EHS-sarcoma) (mouse, UniProt P19137 25-3083; P02469 22-1786; P02468 34-1607); assay: cell-based or functional assay

Sequence of Bovine serum albumin (BSA) (bovine) (P02769 25-607 limits assumed): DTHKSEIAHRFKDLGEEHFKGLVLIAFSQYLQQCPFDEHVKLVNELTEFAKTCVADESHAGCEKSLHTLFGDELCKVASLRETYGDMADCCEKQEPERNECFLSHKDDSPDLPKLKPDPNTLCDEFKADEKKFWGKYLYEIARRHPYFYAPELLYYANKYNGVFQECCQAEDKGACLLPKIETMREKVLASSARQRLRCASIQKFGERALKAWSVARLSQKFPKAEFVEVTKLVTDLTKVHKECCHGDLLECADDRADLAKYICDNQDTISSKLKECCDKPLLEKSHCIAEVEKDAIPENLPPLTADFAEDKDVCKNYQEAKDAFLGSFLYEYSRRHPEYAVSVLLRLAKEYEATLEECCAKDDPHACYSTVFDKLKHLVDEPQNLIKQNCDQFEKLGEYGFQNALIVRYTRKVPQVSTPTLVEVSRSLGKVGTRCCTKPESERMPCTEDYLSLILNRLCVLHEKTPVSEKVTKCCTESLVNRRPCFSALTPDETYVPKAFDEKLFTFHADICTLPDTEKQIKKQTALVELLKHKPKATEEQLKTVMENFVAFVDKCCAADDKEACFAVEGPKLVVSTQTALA
T1 sequence (P02453 162-1217 limits assumed, chain 1 of 2): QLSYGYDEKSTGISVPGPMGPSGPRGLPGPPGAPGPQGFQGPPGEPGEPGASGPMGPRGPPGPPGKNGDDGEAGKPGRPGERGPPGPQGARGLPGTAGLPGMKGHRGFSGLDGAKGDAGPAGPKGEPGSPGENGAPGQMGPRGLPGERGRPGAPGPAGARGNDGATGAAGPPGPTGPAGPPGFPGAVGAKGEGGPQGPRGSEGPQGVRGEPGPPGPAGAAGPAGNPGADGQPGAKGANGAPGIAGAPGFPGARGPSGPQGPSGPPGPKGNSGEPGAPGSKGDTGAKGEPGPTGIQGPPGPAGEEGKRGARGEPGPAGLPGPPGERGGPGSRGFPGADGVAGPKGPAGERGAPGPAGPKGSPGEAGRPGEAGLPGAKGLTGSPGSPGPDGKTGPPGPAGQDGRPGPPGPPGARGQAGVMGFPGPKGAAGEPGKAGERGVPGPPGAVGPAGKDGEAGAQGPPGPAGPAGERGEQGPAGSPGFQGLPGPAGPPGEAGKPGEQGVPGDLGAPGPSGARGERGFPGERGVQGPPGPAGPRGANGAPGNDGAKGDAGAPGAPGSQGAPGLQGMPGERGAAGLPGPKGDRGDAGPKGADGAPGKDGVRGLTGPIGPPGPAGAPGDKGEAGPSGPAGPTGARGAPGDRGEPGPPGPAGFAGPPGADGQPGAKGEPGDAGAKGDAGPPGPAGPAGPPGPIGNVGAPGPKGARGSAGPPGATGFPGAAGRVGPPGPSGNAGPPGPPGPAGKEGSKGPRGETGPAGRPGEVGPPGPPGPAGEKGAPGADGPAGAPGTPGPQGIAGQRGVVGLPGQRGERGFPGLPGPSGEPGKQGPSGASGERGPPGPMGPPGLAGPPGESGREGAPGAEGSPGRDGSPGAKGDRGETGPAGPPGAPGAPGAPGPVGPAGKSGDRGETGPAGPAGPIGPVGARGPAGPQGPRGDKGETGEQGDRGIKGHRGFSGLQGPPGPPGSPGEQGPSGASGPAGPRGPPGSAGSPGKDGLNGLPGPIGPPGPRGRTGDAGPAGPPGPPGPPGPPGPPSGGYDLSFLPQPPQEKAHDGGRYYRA
T1 sequence (P02465 80-1117 limits assumed, chain 2 of 2): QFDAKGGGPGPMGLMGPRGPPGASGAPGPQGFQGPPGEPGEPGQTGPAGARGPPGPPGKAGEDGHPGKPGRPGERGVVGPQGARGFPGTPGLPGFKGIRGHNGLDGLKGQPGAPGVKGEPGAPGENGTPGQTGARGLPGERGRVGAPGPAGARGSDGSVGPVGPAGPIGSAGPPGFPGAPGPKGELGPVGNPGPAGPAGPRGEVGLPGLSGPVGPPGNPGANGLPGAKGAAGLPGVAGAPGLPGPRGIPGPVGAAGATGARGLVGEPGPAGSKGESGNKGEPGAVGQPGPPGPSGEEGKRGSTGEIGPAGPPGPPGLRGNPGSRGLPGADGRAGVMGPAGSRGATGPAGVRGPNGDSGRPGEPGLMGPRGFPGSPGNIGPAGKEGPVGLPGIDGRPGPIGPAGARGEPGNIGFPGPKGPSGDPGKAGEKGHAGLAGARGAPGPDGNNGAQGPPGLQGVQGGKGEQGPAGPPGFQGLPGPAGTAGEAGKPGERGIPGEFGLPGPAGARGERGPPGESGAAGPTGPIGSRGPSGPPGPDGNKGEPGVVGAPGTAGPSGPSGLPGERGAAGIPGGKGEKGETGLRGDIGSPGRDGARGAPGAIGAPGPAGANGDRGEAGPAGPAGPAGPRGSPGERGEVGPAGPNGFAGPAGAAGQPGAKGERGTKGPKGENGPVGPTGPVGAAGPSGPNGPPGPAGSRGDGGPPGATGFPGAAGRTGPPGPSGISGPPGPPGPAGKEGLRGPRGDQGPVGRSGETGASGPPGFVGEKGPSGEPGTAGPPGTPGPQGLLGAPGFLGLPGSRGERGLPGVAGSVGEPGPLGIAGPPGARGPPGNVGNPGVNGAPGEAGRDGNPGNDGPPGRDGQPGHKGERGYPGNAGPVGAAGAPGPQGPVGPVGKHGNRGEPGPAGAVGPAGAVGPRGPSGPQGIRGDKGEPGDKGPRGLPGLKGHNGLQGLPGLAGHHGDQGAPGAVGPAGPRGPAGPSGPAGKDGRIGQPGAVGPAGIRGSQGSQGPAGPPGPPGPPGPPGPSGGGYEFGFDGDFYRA

For “Ace of E. faecalis strain MC02152 (native; on cells and in mutanolysin extracts)”, the % adherence of 46°C grown MC02152 to CIV (Collagen type IV (CIV) [1]) was > 20%, the % of 37°C grown MC02152 cells bound to CIV (Collagen type IV (CIV) [1]) was 8.9% and the % of 46°C grown MC02152 cells bound to CIV (Collagen type IV (CIV) [1]) was 38%. The % of MC02152 cells bound to CIV; no IgG (% of cells bound) (Collagen type IV (CIV) [1]) was 27.7, the % of MC02152 cells bound to BSA; no IgG (% of cells bound) [2] was 0.6 and the % adherence of 46°C grown MC02152 to LN [3] was > 20%. The % of 37°C grown MC02152 cells bound to LN [3] was 7.1%, the % of 46°C grown MC02152 cells bound to LN [3] was 41% and the % of MC02152 cells bound to LN; no IgG (% of cells bound) [3] was 26.7.

“Preimmune rabbit serum and IgGs purified from it (Example 2) (antibody)” showed a % of OG1RF cells bound to BSA; PI IgG 0.001 µg/ml (% of cells bound) [4] of 0.7, a % of OG1RF cells bound to BSA; PI IgG 0.01 µg/ml (% of cells bound) [4] of 0.1 and a % of OG1RF cells bound to BSA; PI IgG 0.1 µg/ml (% of cells bound) [4] of 0.6. The % of OG1RF cells bound to BSA; PI IgG 1 µg/ml (% of cells bound) [4] was 0.8, the % of OG1RF cells bound to BSA; PI IgG 10 µg/ml (% of cells bound) [4] was 0.6 and the % of OG1RF cells bound to BSA; PI IgG 100 µg/ml (% of cells bound) [4] was 0.6. It also gave a % of OG1RF cells bound to CIV; PI IgG 0.001 µg/ml (% of cells bound) [4] of 30.3, a % of OG1RF cells bound to CIV; PI IgG 0.01 µg/ml (% of cells bound) [4] of 28.8 and a % of OG1RF cells bound to CIV; PI IgG 0.1 µg/ml (% of cells bound) [4] of 28.9. For the same molecule, the % of OG1RF cells bound to CIV; PI IgG 1 µg/ml (% of cells bound) [4] was 25.9, the % of OG1RF cells bound to CIV; PI IgG 10 µg/ml (% of cells bound) [4] was 26.6 and the % of OG1RF cells bound to CIV; PI IgG 100 µg/ml (% of cells bound) [4] was 26. The % of OG1RF cells bound to LN; PI IgG 0.001 µg/ml (% of cells bound) [4] was 30.2, the % of OG1RF cells bound to LN; PI IgG 0.01 µg/ml (% of cells bound) [4] was 31.4 and the % of OG1RF cells bound to LN; PI IgG 0.1 µg/ml (% of cells bound) [4] was 29.1. The % of OG1RF cells bound to LN; PI IgG 1 µg/ml (% of cells bound) [4] was 26.4, the % of OG1RF cells bound to LN; PI IgG 10 µg/ml (% of cells bound) [4] was 28.3 and the % of OG1RF cells bound to LN; PI IgG 100 µg/ml (% of cells bound) [4] was 32. For the same molecule, the % of V583 cells bound to BSA; PI IgG 20 µg/ml (% of cells bound) [5] was 0.6, the % of V583 cells bound to CIV; PI IgG 20 µg/ml (% of cells bound) [5] was 33.6 and the % of V583 cells bound to LN; PI IgG 20 µg/ml (% of cells bound) [5] was 27.6. It also gave a % of MC02152 cells bound to BSA; PI IgG 20 µg/ml (% of cells bound) [6] of 0.5, a % of MC02152 cells bound to CIV; PI IgG 20 µg/ml (% of cells bound) [6] of 26.5 and a % of MC02152 cells bound to LN; PI IgG 20 µg/ml (% of cells bound) [6] of 23.5.

For “Ace of E. faecalis strain MD9 (mutanolysin extract)”, the % adherence of 46°C grown MD9 to CIV (Collagen type IV (CIV) [1]) was > 20% and the % adherence of 46°C grown MD9 to LN [3] was > 20%.

For “Ace of E. faecalis strain JH2-2 (mutanolysin extract)”, the % adherence of 46°C grown JH2-2 to CIV (Collagen type IV (CIV) [1]) was > 20% and the % adherence of 46°C grown JH2-2 to LN [3] was > 20%.

In the case of “Recombinant Ace A domain of E. faecalis OG1RF (His-tagged, pBAD/HisA, TX5254)”, the EC50 (read off the curve) [7] is reported as 7 µM and the EC50 (read off the curve) (Collagen type I (CI)) is reported as 10 µM.

With “IgGs purified from pooled normal human sera collected from healthy volunteers (antibody)” the % of OG1RF cells bound to BSA; NHS IgG 0.1 mg/ml (% of cells bound) [8] was 0.9, the % of OG1RF cells bound to BSA; NHS IgG 1 mg/ml (% of cells bound) [8] was 0.7 and the % of OG1RF cells bound to BSA; NHS IgG 2 mg/ml (% of cells bound) [8] was 0.7. The % of OG1RF cells bound to BSA; NHS IgG 4 mg/ml (% of cells bound) [8] was 0.8, the % of OG1RF cells bound to CIV; NHS IgG 0.1 mg/ml (% of cells bound) [8] was 24.8 and the % of OG1RF cells bound to CIV; NHS IgG 1 mg/ml (% of cells bound) [8] was 25.6. For the same molecule, the % of OG1RF cells bound to CIV; NHS IgG 2 mg/ml (% of cells bound) [8] was 24, the % of OG1RF cells bound to CIV; NHS IgG 4 mg/ml (% of cells bound) [8] was 25.6 and the % of OG1RF cells bound to LN; NHS IgG 0.1 mg/ml (% of cells bound) [8] was 31.5. For the same molecule, the % of OG1RF cells bound to LN; NHS IgG 1 mg/ml (% of cells bound) [8] was 31.3, the % of OG1RF cells bound to LN; NHS IgG 2 mg/ml (% of cells bound) [8] was 31.3 and the % of OG1RF cells bound to LN; NHS IgG 4 mg/ml (% of cells bound) [8] was 31.4.

“Ace of E. faecalis strain OG1RF (native; on 46°C grown cells and in mutanolysin extracts)” gave a % of OG1RF cells bound to CIV; no IgG (% of cells bound) (Collagen type IV (CIV) [9]) of 29.6, a % of OG1RF cells bound to CIV; no IgG (% of cells bound) (Collagen type IV (CIV) [1]) of 27.7 and a fold decrease of adherence to CIV in ace mutant TX5256 against OG1RF (Collagen type IV (CIV) [1]) of 27.4 fold.

With “Ace of E. faecalis strain END6 (mutanolysin extract)” the % adherence of 46°C grown END6 to CIV (Collagen type IV (CIV) [1]) was > 20% and the % adherence of 46°C grown END6 to LN [3] was > 20%.

For “Ace of E. faecalis strain V583 (native; on cells and in mutanolysin extracts)”, the % adherence of 46°C grown V583 to CIV (Collagen type IV (CIV) [1]) was > 20%, the % of V583 cells bound to CIV; no IgG (% of cells bound) (Collagen type IV (CIV) [1]) was 38.1 and the % of V583 cells bound to BSA; no IgG (% of cells bound) [2] was 0.7. The % adherence of 46°C grown V583 to LN [3] was > 20% and the % of V583 cells bound to LN; no IgG (% of cells bound) [3] was 29.4.

B1: Recombinant E. faecalis EF1 Ace A domain (N-terminal His6-tag fusion, from pQE-30) (other)
chain: MRGSHHHHHHGSELSKSSIVDKVELDHTTLYQGEMTSIKVSFSDKENQKIKPGDTITLTLPDELVGMTENDGSPRKINLNGLGEVFIYKDHVVATFNEKVESLHNVNGHFSFGIKTLITNSSQPNVIETDFGTATATQRLTIEGVTNTETGQIERDYPFFYKVGDLAGESNQVRWFLNVNLNKSDVTEDISIADRQGSGQQLNKESFTFDIVNDKETKYISLAEFEQQGYGKIDFVTDNDFNLRFYRDKARFTSFIVRYTSTITEAGQHQATFENSYDINYQLNNQDATNEKNTSQVKNVFVEGEASGNQNVEMPTEESLDIPLETIEEWEPKTPTSEQATETSEKTD
notes: Residues 32-367 are counted from nucleotides 94-1101; also called recombinant Ace A domain
With B1 the Kd [10] was 48 µM.

B2: Ace of E. faecalis strain OG1RF (native; on 46°C grown cells and in mutanolysin extracts) (other)
chain: ELSKSSIVDKVELDHTTLYQGEMTSIKVSFSDKENQKIKPGDTITLTLPDALVGMTENDGSPRKINLNGLGEVFIYKDHVVATFNEKVESLHNVNGHFSFGIKTLITNSSQPNVIETDFGTATATQRLTIEGVTNTETGQIERDYPFFYKVGDLAGESNQVRWFLNVNLNKSDVTEDISIADRQGSGQQLNKESFTFDIVNDKETKYISLAEFEQQGYGKIDFVTDNDFNLRFYRNKARFTSFIVRYTSTITEAGQHQATFENSYDINYQLNNQDATNEKNTSQVKNVFVEGEASGNQNVEMPTEESLDIPLETIDEWEPKTPTSEQATETSEKTGATETAESSQPEVHVSPTEEENPDEGGTLGTIEPIIPEKPSVTTEENGVTETAEGSQPEVHVSPTEEENPDESETLGTITPIIPEKPSVTTEENGVTETAEGSQPEVHVSPTEEENPDESETLGTITPIIPEKPSVTTEENGATETAESSQPEVHVSPAEEENPDESETLGTITPIIPEKPSVTTEENGTTETAESSQPEVHVSPTEEENLDESETLGTIEPIIPEKPSVTTEENGTTETAESSQPEVHVSPTKEITTTEKKQPSTETTVEKNKNVTSKNQPQILNAPLNTVKNEGSPQLAPQLLSEPIQKLNEANGQRELPKT
With B2 the “fold decrease of adherence to LN in ace mutant TX5256 against OG1RF” value [11] was 32.9 fold.
